Experiment [1] has as its system HEK-OX1R cells expressing recombinant OX1R. Kind of experiment: Apoptosis in HEK-OX1R cells (annexin V-PE binding, Guava nexin kit). It counts as cell-based, human.
Experiment [2] relates to HT-29 cells. Kind of experiment: Growth of tumors from xenografted human HT-29 cells in nude mice. It counts as in vivo. Conditions: ip, 2 injections/week, Day 43. The procedure:
FIG. 8: Effect of inoculation of orexin-A and C2 antibody on the growth of tumors developed by xenografted human HT-29 cells in nude mice. Colon adenocarcinoma derived cells, HT-29, were inoculated in the flank of nude mice at day 0. Mice were injected at day 1 (2 injections/week) intraperitoneally with 100 μl of orexin-A solution (1.4 μmoles of orexin-A/Kg (white circles)) or with 100 μl of C2 antibody solution (0.065 μmoles/Kg (black triangles) or 0.02 μmoles/Kg (white triangles)) or with 100 μl of PBS (black circles) for control. The inventors have tested the ability of C2 antibody to inhibit the tumor development of xenografted nude mice with the human colon adenocarcinoma cell line, HT-29. After subcutaneous injection of 1.5×10^6 HT-29 cells in mice, animals were treated by 2 intraperitoneal (ip) injection/week of Orexin-A (100 μg/injection corresponding to 1.4 μmoles of orexin-A/Kg) or two doses of C2 antibody (200 μg/injection or 50 μg/injection corresponding to 0.065 μmoles/Kg and 0.02 μmoles/Kg, respectively). Control was determined by ip injection of 100 μl of PBS. The experiment was conducted during 45 days and the tumor volume was estimated by measuring the short and long axes of developedtumors each ⅔ days.
On the technique in general: Xenograft models place foreign cells or tissue in a host animal.

For experiment [3], the system named is HEK-OX1R cells expressing recombinant OX1R. Kind of experiment: Cell growth of HEK-OX1R cells (cell counting). Type of experiment: cell-based, human. Conditions: 0.1 μM, 48 h.
The test system of experiment [4] is CHO cells lines transfected with OX1R of mouse. Description: Cross-reaction: cells transfected with mouse OX1R. Type of experiment: cell-based. Conditions: 0.1 μM, 48 h.
Experiment [5] concerns CHO cells lines transfected with OX1R of rat. Kind of experiment: Cross-reaction: cells transfected with rat OX1R. It counts as cell-based. Conditions: 0.1 μM, 48 h.
Experiment [6] relates to SW48 cells. Description: Cell growth of colon cancer cell line SW48. Conditions: 0.1 μM, 48 h. Type of experiment: cell-based. On the procedure: (§1) Cells were treated for 48 h with 0.1 μM of each compound and then cells were counted. Results were expressed as the percentage of untreated cell number (Control).
(§2) We have tested the ability of antibodies to inhibit the cellular growth in cancer cell lines derived from colon cancer (SW48, LoVo and HCT-116 cells) and pancreas cancer (AsPC-1 cells). […] D4 and H7 have a weak effect. […] As previously described (see above) orexins are able to induce a mitochondrial apoptosis in cancer cell lines. We test the ability of antibodies to induce apoptosis in HEK-OX1R cells and colonic cancer cell line LoVo. […] This effect was dose-dependent. Indeed when HEK-OX1R cells were treated with 0.01 μM of C2 antibody, cell apoptosis was only of 6±0.7% of total cells.

Experiment [7] has as its system LoVo cells. Kind of experiment: Cell growth of colon cancer cell line LoVo. It counts as cell-based. Conditions: 0.1 μM, 48 h. On the procedure: as §1, §2
Experiment [8] deals with AsPC-1 cells. Kind of experiment: Cell growth of pancreas cancer cell line AsPC-1. Type of experiment: cell-based. Conditions: 0.1 μM, 48 h. On the procedure: as §1, §2
Experiment [9] deals with LoVo cancer cell line. Description: Apoptosis in LoVo cancer cell line. It counts as cell-based.
Source text: as §2

[10] abbreviates: 100 μg/injection (1.4 μmoles/Kg).
[11] abbreviates: 200 μg/injection (0.065 μmoles/Kg).
Setting [12] is: low dose, 50 μg/injection (0.02 μmoles/Kg).

Turning to `O=S(=O)(O)c1ccc2cc(N=Nc3cc(S(=O)(=O)O)c4cccnc4c3O)ccc2c1` [NSC-87877, reference compound], in experiment [1] (NSC-87877 50 μM), the “effect of SHP-2 inhibitor on orexin-induced apoptosis” value is “blocks orexin-induced apoptosis”.
With “Orexin-A (QPLPDCCRQKTCSCRLYELLHGAGNHAAGILTL) [orexin A, a 33 amino acid neuropeptide, native OX1R ligand, reference compound]”, in experiment [2] (setting [10]), the “inhibition of tumor growth” value was “about 65%” and the tumor volume is given as about 570±100 mm^3.

B1: C2: human monoclonal anti-OX1R antibody from phage display; VH SEQ ID NO:1, VL SEQ ID NO:2 (antibody, V domains shown)
VH: EVQLVESGGSLVKPGGSLRLSCAASGFTFSNSYMNWVRQAPGKGLEWISSIYGSSRYIDYADFVKGRFTISRDNATNSLYLQMNSLRAEDTAVYYCVRSSSYYGSGMDVWGRGTLVTVSS
VL: QSVLTQPASVSGSPGQSITISCAGTSSDVGGYGSVSWYQQHPGKAPKLMIYYDSYRPSGVSNRFSGSKSGNTASLTISGLQAEDEADYYCSSNTNSSTRVFGGGTKLAVLG
modifications: Synthetic VH sequence of C2; Synthetic VL sequence of C2
Turning to B1, in experiment [3] (versus untreated cells), the “reduction of HEK-OX1R cell number” value was about 37±3%. Also, the “inhibition of HEK-OX1R cellular growth in the presence of SHP inhibitor” value in [3] (with 50 μM NSC 87877) is reported as “totally reversed”. Moreover, the “promotion of apoptosis of cells transfected with mouse OX1R” value in experiment [4] is listed as “able to promote apotosis”. Moreover, the “promotion of apoptosis of cells transfected with rat OX1R” value in experiment [5] is given as “able to promote apotosis”. In addition, in experiment [6], the “inhibition of cell growth in SW48 cells” value is “inhibit the cell growth in SW48 cells similarly to OxB”. Besides, the “inhibition of cell growth in LoVo cells” value in experiment [7] is listed as “inhibit the cell growth in LoVo cells similarly to OxB”. The “inhibition of cell growth in AsPC-1 cells” value in experiment [8] is given as “cell growth inhibition similar to OxB effect”. Besides, the “apoptosis in HEK-OX1R cells, % of total cells” value in [1] (0.01 μM) is given as 6±0.7%. Further, in experiment [1] (0.1 μM, 48 h), the “apoptosis in HEK-OX1R cells, % of total cells” value amounted to 16±2%. In [1] (with NSC 87877), the “apoptosis and growth inhibition in the presence of SHP inhibitor” value was “totally abolished”. Besides, in [9] (0.01 μM), the “apoptotic response in LoVo cancer cell line” value is on record as “strongly reduce the apoptotic response”. The “induction of apoptosis in LoVo cancer cell line” value in experiment [9] (0.1 μM, 48 h) is “able to induce apoptosis”. For the same molecule, in [2] (setting [11]), the “reduction of tumor development” value was “about 60%” and the tumor volume is about 650±98 mm^3. In addition, in experiment [2] (setting [12]), the “inhibition of tumor growth” value amounted to 45% and the tumor volume is listed as about 885±130 mm^3.

The values are drawn from patent publication US10758615B2, “Human monoclonal antibodies against orexin receptor type 1” (INSERM (INSTITUT NATIONAL DE LA SANTE ET DE LA RECHERCHE …, priority 2015, dated 2020).
